In paper PMC3085011 (2011):

Target: T1, CNA1 (Saccharomyces cerevisiae, UniProt P23287)
T1 chain: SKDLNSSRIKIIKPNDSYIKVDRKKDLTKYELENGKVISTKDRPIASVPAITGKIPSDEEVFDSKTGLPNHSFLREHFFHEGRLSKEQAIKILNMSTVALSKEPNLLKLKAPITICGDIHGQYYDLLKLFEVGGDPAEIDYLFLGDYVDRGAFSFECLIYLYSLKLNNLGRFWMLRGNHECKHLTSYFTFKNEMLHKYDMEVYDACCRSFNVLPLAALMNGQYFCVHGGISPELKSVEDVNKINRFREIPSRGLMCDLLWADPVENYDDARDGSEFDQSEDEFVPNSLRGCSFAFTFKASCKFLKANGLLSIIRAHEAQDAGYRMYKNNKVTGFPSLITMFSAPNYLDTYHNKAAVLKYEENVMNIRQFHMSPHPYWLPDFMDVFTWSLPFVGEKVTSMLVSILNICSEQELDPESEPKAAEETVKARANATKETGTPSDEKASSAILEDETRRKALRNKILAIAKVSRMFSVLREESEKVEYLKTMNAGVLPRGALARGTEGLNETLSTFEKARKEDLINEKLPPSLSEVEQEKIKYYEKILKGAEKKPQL
Test: SPROX

Kd: 120 nM
B1: CPR1 (protein)
chain: not shown
modifications: cyclosporin A
